Results: the Immune Epitope Database (IEDB)

Tests used:
HLA-B*08:01 [1] = assay: IEDB peptide-MHC binding, purified MHC/direct/fluorescence; filed as Kd, often an IC50 or EC50 that approximates it; ≥ and ≤ were set here for values at or beyond the usual limits of such assays
HLA-B*08:02 = assay: as above
HLA-A*02:01 [2] = assay: as above; conditions: source organism: Homo sapiens
HLA-B*39:01 = assay: IEDB peptide-MHC binding, purified MHC/competitive/fluorescence; filed as Kd, often an IC50 or EC50 that approximates it; ≥ and ≤ were set here for values at or beyond the usual limits of such assays
HLA-B*57:01 [3] = assay: as above
HLA-B*27:03 = assay: as above; conditions: source organism: Homo sapiens
HLA-B*15:17 [4] = assay: as above; conditions: source organism: Homo sapiens
HLA-B*46:01 = assay: as above; conditions: source organism: Homo sapiens
HLA-A*69:01 [5] = assay: as above; conditions: source organism: Homo sapiens
HLA-B*18:01 = assay: as above
HLA-B*15:01 [6] = assay: as above
HLA-A*26:01 = assay: as above; conditions: source organism: Homo sapiens
HLA-B*51:01 = assay: as above
HLA-A*02:02 = assay: IEDB peptide-MHC binding, purified MHC/competitive/radioactivity; filed as Kd, often an IC50 or EC50 that approximates it; ≥ and ≤ were set here for values at or beyond the usual limits of such assays
HLA-A*68:02 = assay: as above
HLA-A*02:03 = assay: as above
HLA-A*02:06 = assay: as above
HLA-A*02:01 [7] = assay: as above
HLA-A*02:17 = assay: as above
HLA-A*01:01 = assay: as above; conditions: source organism: Dengue virus 1 Brazil/97-11/1997
HLA-B*08:01 [8] = assay: as above
HLA-A*03:01 = assay: IEDB peptide-MHC binding, purified MHC/competitive/fluorescence; filed as Kd, often an IC50 or EC50 that approximates it; ≥ and ≤ were set here for values at or beyond the usual limits of such assays
HLA-A*02:01 [9] = assay: as above
HLA-B*57:01 [10] = assay: IEDB peptide-MHC binding, purified MHC/direct/fluorescence; filed as Kd, often an IC50 or EC50 that approximates it; ≥ and ≤ were set here for values at or beyond the usual limits of such assays
HLA-B*15:17 [11] = assay: as above
HLA-B*58:01 = assay: as above
HLA-B*15:01 [12] = assay: IEDB peptide-MHC binding, purified MHC/competitive/radioactivity; filed as Kd, often an IC50 or EC50 that approximates it; ≥ and ≤ were set here for values at or beyond the usual limits of such assays; conditions: source organism: Dengue virus 3 Sri Lanka/1266/2000
HLA-A*32:01 = assay: as above
HLA-A*69:01 [13] = assay: IEDB peptide-MHC binding, purified MHC/direct/fluorescence; filed as Kd, often an IC50 or EC50 that approximates it; ≥ and ≤ were set here for values at or beyond the usual limits of such assays; conditions: source organism: Mycobacterium tuberculosis
HLA-B*07:02 = assay: as above; conditions: source organism: Mycobacterium tuberculosis str. Haarlem
HLA-B*35:01 = assay: IEDB peptide-MHC binding, purified MHC/competitive/radioactivity; filed as Kd, often an IC50 or EC50 that approximates it; ≥ and ≤ were set here for values at or beyond the usual limits of such assays; conditions: source organism: Dengue virus 3 Singapore/8120/1995
[14] = source organism: Human herpesvirus 5 strain Towne
[15] = source organism: Dengue virus 2 Jamaica/1409/1983
[16] = source organism: Dengue virus 1 Singapore/S275/1990
[17] = source organism: Dengue virus 1 Brazil/97-11/1997
[18] = source organism: Dengue virus 3 China/80-2/1980
[19] = source organism: Dengue virus 3 Martinique/1243/1999
[20] = source organism: Dengue virus 4 Philippines/H241/1956
[21] = source organism: Mycobacterium tuberculosis C
[22] = source organism: Giardia lamblia ATCC 50803
[23] = source organism: Camelpox virus M-96
[24] = source organism: Dengue virus 3 Sri Lanka/1266/2000
[25] = source organism: Trypanosoma cruzi
[26] = source organism: dengue virus type 4
[27] = source organism: Vibrio parahaemolyticus AQ3810
[28] = source organism: Orthonairovirus haemorrhagiae
[29] = source organism: Mycobacterium tuberculosis str. Haarlem

YSKVKLLGL gave a Kd (HLA-B*08:01 [1]; source organism: Orthohantavirus dobravaense) of 52.5 nM and a Kd (HLA-B*08:02; source organism: Kurkino virus) of 512 nM.

VLIRRCHYL showed a Kd (HLA-A*02:01 [2]) of 1.5 nM, a Kd (HLA-B*39:01; source organism: Homo sapiens) of at least 20000 nM and a Kd (HLA-B*57:01 [3]; source organism: Homo sapiens) of at least 20000 nM. The Kd (HLA-B*27:03) was at least 20000 nM, the Kd (HLA-B*15:17 [4]) was at least 20000 nM and the Kd (HLA-B*46:01) was at least 20000 nM. It also gave a Kd (HLA-A*69:01 [5]) of at least 20000 nM, a Kd (HLA-B*18:01; source organism: Homo sapiens) of at least 20000 nM and a Kd (HLA-B*15:01 [6]; source organism: Homo sapiens) of at least 20000 nM. It also gave a Kd (HLA-A*26:01) of at least 20000 nM and a Kd (HLA-B*51:01; source organism: Homo sapiens) of at least 20000 nM.

LPLKMLNIPSINVH was tested, and the Kd (HLA-B*39:01; [14]) was at least 20000 nM, the Kd (HLA-B*57:01 [3]; [14]) was at least 20000 nM and the Kd (HLA-B*18:01; [14]) was at least 20000 nM. It also gave a Kd (HLA-B*15:01 [6]; [14]) of at least 20000 nM and a Kd (HLA-B*51:01; [14]) of at least 20000 nM.

ELADKVTKL gave a Kd (HLA-A*02:02; source organism: Homo sapiens) of 33.2 nM, a Kd (HLA-A*68:02; source organism: Homo sapiens) of 3.18 nM and a Kd (HLA-A*02:03; source organism: Homo sapiens) of 114 nM. For the same sequence, the Kd (HLA-A*02:06; source organism: Homo sapiens) was at least 38800 nM and the Kd (HLA-A*02:01 [7]; source organism: Homo sapiens) was 2510 nM.

In the case of GLLTVCYVL, the Kd (HLA-A*02:17; [15]) is reported as 802 nM.

LTAAVLMLV was tested, and the Kd (HLA-A*01:01) was 17700 nM, the Kd (HLA-A*02:17; [16]) was 561 nM and the Kd (HLA-A*68:02; [17]) was 11.3 nM. It also gave a Kd (HLA-A*02:03; [17]) of 11.8 nM, a Kd (HLA-A*02:06; [17]) of 10.6 nM and a Kd (HLA-A*02:01 [7]; [16]) of 1.14 nM.

For TLLLLGLMIL, the Kd (HLA-A*02:17; [18]) was 2420 nM and the Kd (HLA-B*08:01 [8]; [19]) was 890 nM.

In the case of RWFFRPLRK, the Kd (HLA-A*03:01; source organism: Entamoeba dispar SAW760) is reported as 125 nM.

With LLAGFMAYMI the Kd (HLA-A*02:17; [20]) was 45.7 nM and the Kd (HLA-A*02:01 [7]; [20]) was 7.04 nM.

YLRRRQKAL gave a Kd (HLA-B*08:01 [1]; [21]) of 10 nM and a Kd (HLA-B*08:02; [21]) of 1310 nM.

For LMMMLPATLA, the Kd (HLA-A*02:17; [18]) was 2880 nM, the Kd (HLA-A*02:03; [18]) was 17.5 nM and the Kd (HLA-A*02:01 [7]; [18]) was 13.5 nM.

With VSDFRKEFY the Kd (HLA-B*39:01; source organism: Homo sapiens) was at least 20000 nM, the Kd (HLA-B*57:01 [3]; source organism: Homo sapiens) was at least 20000 nM and the Kd (HLA-B*27:03) was at least 20000 nM. The Kd (HLA-B*46:01) was at least 20000 nM, the Kd (HLA-A*69:01 [5]) was at least 20000 nM and the Kd (HLA-B*18:01; source organism: Homo sapiens) was at least 20000 nM. The Kd (HLA-B*15:01 [6]; source organism: Homo sapiens) was at least 20000 nM, the Kd (HLA-A*26:01) was at least 20000 nM and the Kd (HLA-B*51:01; source organism: Homo sapiens) was at least 20000 nM. It also gave a Kd (HLA-A*02:01 [9]; source organism: Homo sapiens) of at least 20000 nM.

LASSSYEQF was tested, and the Kd (HLA-B*57:01 [10]; [22]) was 188 nM, the Kd (HLA-B*15:17 [11]; [22]) was 21.8 nM and the Kd (HLA-B*58:01; [22]) was 36.5 nM.

Work on KLIEGTNIW yielded a Kd (HLA-B*57:01 [10]; [23]) of 70.5 nM, a Kd (HLA-B*15:17 [11]; [23]) of 67.9 nM and a Kd (HLA-B*58:01; [23]) of 7.7 nM.

For LMMILPAAL, the Kd (HLA-A*02:17; [24]) was 78.4 nM, the Kd (HLA-A*02:03; [24]) was 15.3 nM and the Kd (HLA-B*08:01 [8]; [24]) was 18.1 nM. For the same sequence, the Kd (HLA-B*15:01 [12]) was 13.6 nM.

VLLKTALLIV was tested, and the Kd (HLA-A*02:17; [18]) was 2490 nM, the Kd (HLA-A*02:03; [19]) was 40.1 nM and the Kd (HLA-A*02:06; [19]) was 37 nM.

With FSFGDYFKH the Kd (HLA-A*03:01; source organism: Escherichia coli O157:H7 str. Sakai) was at least 20000 nM.

Sequence QLAFFVAGK has a Kd (HLA-A*03:01; source organism: Escherichia coli K-12) of 12.8 nM.

FAGKTVWFV showed a Kd (HLA-A*02:17; [24]) of 293 nM and a Kd (HLA-A*02:06; [19]) of 39.5 nM.

WMTTEDMLTV was tested, and the Kd (HLA-A*02:17; [18]) was 2240 nM, the Kd (HLA-A*02:03; [19]) was 37.5 nM and the Kd (HLA-A*02:06; [19]) was 8.59 nM. For the same sequence, the Kd (HLA-A*02:01 [7]; [18]) was 13.6 nM.

Work on DLMCHATFTM yielded a Kd (HLA-A*02:17; [15]) of at least 70400 nM and a Kd (HLA-A*02:01 [7]; [15]) of 209 nM.

DTMRPTTVV showed a Kd (HLA-A*02:02; [25]) of at least 28900 nM, a Kd (HLA-A*68:02; [25]) of 1.38 nM and a Kd (HLA-A*02:03; [25]) of 4630 nM. The Kd (HLA-A*02:06; [25]) was 3040 nM and the Kd (HLA-A*02:01 [7]; [25]) was at least 83300 nM.

KAYAQMWSL gave a Kd (HLA-B*57:01 [10]; [26]) of 10.1 nM, a Kd (HLA-B*15:17 [11]; [26]) of 1.3 nM and a Kd (HLA-A*32:01; [19]) of 24.8 nM. The Kd (HLA-A*02:06; [19]) was 27.2 nM.

For QTWKPDDVL, the Kd (HLA-B*57:01 [10]; [27]) was at least 20000 nM, the Kd (HLA-B*15:17 [11]; [27]) was 730 nM and the Kd (HLA-B*58:01; source organism: Vibrio parahaemolyticus) was at least 20000 nM.

For KTMAMVLSIV, the Kd (HLA-A*02:17; [16]) was 2860 nM, the Kd (HLA-A*68:02; [16]) was 52.5 nM and the Kd (HLA-A*02:03; [16]) was 1.18 nM. The Kd (HLA-A*02:06; [16]) was 1.96 nM and the Kd (HLA-A*02:01 [7]; [16]) was 26.4 nM.

MIRRRNQIL gave a Kd (HLA-B*08:01 [1]; [28]) of 3 nM, a Kd (HLA-B*08:02; [28]) of 843 nM and a Kd (HLA-A*02:01 [9]; [28]) of at least 20000 nM.

In the case of LPAQLTATA, the Kd (HLA-B*08:01 [1]; [29]) is reported as at least 20000 nM, the Kd (HLA-A*69:01 [13]) is reported as 184 nM and the Kd (HLA-B*08:02; [29]) is reported as at least 20000 nM. For the same sequence, the Kd (HLA-B*07:02) was 441 nM.

In the case of KLVMAFIAFL, the Kd (HLA-A*02:17; [16]) is reported as 22.4 nM, the Kd (HLA-A*02:06; [17]) is reported as 11.5 nM and the Kd (HLA-A*02:01 [7]; [16]) is reported as 28.9 nM.

MLWMADVPL was tested, and the Kd (HLA-A*02:17; [18]) was 2.72 nM, the Kd (HLA-A*32:01; source organism: Dengue virus 3 Singapore/8120/1995) was 29.1 nM and the Kd (HLA-B*35:01) was 658 nM. It also gave a Kd (HLA-A*02:01 [7]; [18]) of 1.16 nM.

FMMVLLIPEP showed a Kd (HLA-A*02:17; [18]) of 5730 nM, a Kd (HLA-A*02:06; [19]) of 124 nM and a Kd (HLA-A*02:01 [7]; [18]) of 93.1 nM.

With LLLLVAHYAI the Kd (HLA-A*02:17; [15]) was 434 nM, the Kd (HLA-A*02:06; [15]) was 53.4 nM and the Kd (HLA-A*02:01 [7]; [15]) was 97.8 nM.

LLLLVAHYA showed a Kd (HLA-A*02:17; [15]) of 7930 nM and a Kd (HLA-A*02:01 [7]; [15]) of 51.9 nM.

For RVDEIILFH, the Kd (HLA-A*03:01; source organism: Trichodesmium erythraeum IMS101) was 73 nM.
